Conditions: Saccharomyces cerevisiae (strain ATCC 204508 / S288c), CD, reversible: yes; for denaturant m value / denaturant midpoint (higher = more stable) / unfolding free energy: 27 °C, GdnHCl
[1] = pH 4.6, glycine 40 mM, structure 1YCC
[2] = pH 4.6, Thermal, Sodium acetate 50 mM, structure 1YCC
[3] = pH 6, Thermal, Sodium phosphate 50 mM, structure 1YCC
[4] = pH 7.2, Potassium phosphate 50 mM, structure 1YCC
[5] = pH 6, Thermal, Sodium phosphate 50 mM
[6] = pH 7.2, Potassium phosphate 50 mM

Sequence of Cytochrome c isoform 1 V26C, P00044 (P00044 whole entry V26C, canonical isoform): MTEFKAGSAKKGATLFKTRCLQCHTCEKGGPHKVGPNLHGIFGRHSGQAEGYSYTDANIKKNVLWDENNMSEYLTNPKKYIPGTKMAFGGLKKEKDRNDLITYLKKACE
Sequence of Cytochrome c isoform 1 wild type, P00044 (P00044 whole entry, canonical isoform): as the sequence (P00044 whole entry V26C, canonical isoform) above, with C26V counted along it

For Cytochrome c isoform 1 V26C, P00044, the denaturant m value [1] was 2.7 kcal/mol/M, the “denaturant midpoint (higher = more stable)” value (shortened to “denaturant midpoint”) [1] was 1.1 M and the unfolding free energy [1] was 2.9 kcal/mol. The Tm [2] was 53.4 °C, the “unfolding enthalpy (van 't Hoff)” value [2] was 64.5 kcal/mol and the Tm [3] was 58.5 °C. The “change of melting temperature, mutant - wild type (higher = more stable)” value [3] was 6.8 °C, the “unfolding enthalpy (van 't Hoff)” value [3] was 63.8 kcal/mol and the denaturant m value [4] was 2.6 kcal/mol/M. For the same substance, the “denaturant midpoint” value [4] was 1.2 M and the unfolding free energy [4] was 3 kcal/mol.
In the case of “Cytochrome c isoform 1 wild type, P00044”, the Tm [5] is reported as 51.7 °C, the “unfolding enthalpy (van 't Hoff)” value [5] is reported as 84.5 kcal/mol and the denaturant m value [6] is reported as 4.6 kcal/mol/M. For the same substance, the “denaturant midpoint” value [6] was 0.9 M and the unfolding free energy [6] was 4.1 kcal/mol.

Source: FireProtDB (doi:10.1021/bi00164a007)
